From EP1618130B1 come the findings set out here.

For the assay, the target named is HLA-A2 (human).

As for “HLA-A2 high affinity positive control epitope from HIV-1 pol476-484 ([…]) (peptide)”, the C50 was 0.2 µM.
